What was measured:
[1] = target: the molecule itself; assay: cell-based or functional assay
[2] = target: the molecule itself; assay: SEC; oligomeric state from elution volumes (Superdex 200 Increase 10/300 GL, HiLoad 16/600 Superdex 200) with reference to ScKEOPS (monomeric, 117.7 kDa) and standard calibration
[3] = target: the molecule itself; assay: cryo-EM structure; AtKEOPS mixed with tRNA^ArgCCU at 1:2; tRNA not seen; six subunits resolved (KAE1, PCC1, PCC1, KAE1, BUD32, CGI121); 3.2 Å after local refinement

| Protein | stoichiometry N [2] | further results |
| --- | --- | --- |
| A. thaliana KEOPS variant PCC1^R73D–KAE1–BUD32–CGI121 (complex, Arabidopsis thaliana) chain 1: MKKKMIAIGFEGSANKIGVGIVTLDGTILANPRHTYITPPGHGFLPRETAHHHLDHVLPLVKSALETSQVTPEEIDCICYTKGPGMGAPLQVSAIVVRVLSQLWKKPIVAVNHCVAHIEMGRVVTGADDPVVLYVSGGNTQVIAYSEGRYRIFGETIDIAVGNCLDRFARVLKLSNDPSPGYNIEQLAKKGENFIDLPYAVKGMDVSFSGILSYIETTAEEKLKNNECTPADLCYSLQETVFAMLVEITERAMAHCDKKDVLIVGGVGCNERLQEMMRTMCSERDGKLFATDDRYCIDNGAMIAYTGLLAFVNGIETPIEDSTFTQRFRTDEVHAVWREKEAVLLGDKKVAAN chain 2: MDCEENVRDESLVLIKQGAEARVFESTFAGRRSIVKERFSKKYRHPILDAKLTLKRLNAEARCMTKARKLGVCTPVLYAVDTLLHSLTLEYIEGVSVKDIFLEFGTNGVVEERLDDVAAQIGAAIAKLHDGGLAHGDLTTSNMLVRSGTNQLVLIDFGLSVTSTLPEDKAVDLYVLERALLSMHSSCGNVMDRILTAYRKSSKQWSATFNKLAQVRQRGRKRTMIG chain 3: MKVFNLDRGNTLSVSLFSGVTNSKELLNSMLDGSLKLEVSFLNASLIPDIFPLLAAAQKALISKSRDSLSTRTLHSELVYNYSGSKHITESLKRCGISENTTYILAARFNASPVEMEEVAKLINGKEIDLEELKTHANQANILKHYKITSQELGISSLGDAIVCRIAARDAL chain 4: MAATVPATTRSDQTWDFSCNLDVSFESEEHALIAYTSLAVDKELQPDKVRRVMSVSNNKLSVHFEAIEARLLDASFSAFVDVLTLATRTIQEFGQK | – | t^6A-catalytic activity relative to AtKEOPS dimer [1]: ~25% |
| A. thaliana KAE1–PCC1 subcomplex (complex, Arabidopsis thaliana, AtKAE1, A. thaliana, as m1; AtPCC1, A. thaliana, as m4; Written as the KAE1–PCC1 heterodimer unit, which by SEC forms a dimer of itself; also called KP; AtKP; source: E. coli (Rosetta DE3 pLysS or BL21), co-expressed from pET26a–AtKAE1–PCC1-6His, purified (Ni-NTA, SEC)) chain 1: MKKKMIAIGFEGSANKIGVGIVTLDGTILANPRHTYITPPGHGFLPRETAHHHLDHVLPLVKSALETSQVTPEEIDCICYTKGPGMGAPLQVSAIVVRVLSQLWKKPIVAVNHCVAHIEMGRVVTGADDPVVLYVSGGNTQVIAYSEGRYRIFGETIDIAVGNCLDRFARVLKLSNDPSPGYNIEQLAKKGENFIDLPYAVKGMDVSFSGILSYIETTAEEKLKNNECTPADLCYSLQETVFAMLVEITERAMAHCDKKDVLIVGGVGCNERLQEMMRTMCSERDGKLFATDDRYCIDNGAMIAYTGLLAFVNGIETPIEDSTFTQRFRTDEVHAVWREKEAVLLGDKKVAAN chain 2: MAATVPATTRSDQTWDFSCNLDVSFESEEHALIAYTSLAVDKELQPDKVRRVMSVSNNKLSVHFEAIEARLLRASFSAFVDVLTLATRTIQEFGQK | 2 | – |
| A. thaliana KAE1–BUD32–PCC1 subcomplex (complex, Arabidopsis thaliana, AtKAE1, A. thaliana; AtBUD32, A. thaliana; AtPCC1, A. thaliana; Written as the three-subunit unit, which by SEC forms a dimer of itself; also called KBP; AtKBP; source: recombinant, heterologous expression; copies: + +) chain 1: MKKKMIAIGFEGSANKIGVGIVTLDGTILANPRHTYITPPGHGFLPRETAHHHLDHVLPLVKSALETSQVTPEEIDCICYTKGPGMGAPLQVSAIVVRVLSQLWKKPIVAVNHCVAHIEMGRVVTGADDPVVLYVSGGNTQVIAYSEGRYRIFGETIDIAVGNCLDRFARVLKLSNDPSPGYNIEQLAKKGENFIDLPYAVKGMDVSFSGILSYIETTAEEKLKNNECTPADLCYSLQETVFAMLVEITERAMAHCDKKDVLIVGGVGCNERLQEMMRTMCSERDGKLFATDDRYCIDNGAMIAYTGLLAFVNGIETPIEDSTFTQRFRTDEVHAVWREKEAVLLGDKKVAAN chain 2: MDCEENVRDESLVLIKQGAEARVFESTFAGRRSIVKERFSKKYRHPILDAKLTLKRLNAEARCMTKARKLGVCTPVLYAVDTLLHSLTLEYIEGVSVKDIFLEFGTNGVVEERLDDVAAQIGAAIAKLHDGGLAHGDLTTSNMLVRSGTNQLVLIDFGLSVTSTLPEDKAVDLYVLERALLSMHSSCGNVMDRILTAYRKSSKQWSATFNKLAQVRQRGRKRTMIG chain 3: MAATVPATTRSDQTWDFSCNLDVSFESEEHALIAYTSLAVDKELQPDKVRRVMSVSNNKLSVHFEAIEARLLRASFSAFVDVLTLATRTIQEFGQK | 2 | – |
| A. thaliana KEOPS complex (PCC1–KAE1–BUD32–CGI121) (complex, Arabidopsis thaliana, AtKAE1, A. thaliana, as m1; AtBUD32, A. thaliana, as m2; AtCGI121, A. thaliana, as m3; AtPCC1, A. thaliana, as m4; Written as the four-subunit protomer; In solution the wild type is an eight-subunit dimer (K2B2C2P2) of this protomer, and it stood in that form in the pull-down from seedling lysate; also called AtKEOPS; KBCP; source: reconstituted from purified KAE1–PCC1 and BUD32–CGI121 (E. coli) …) chain 1: MKKKMIAIGFEGSANKIGVGIVTLDGTILANPRHTYITPPGHGFLPRETAHHHLDHVLPLVKSALETSQVTPEEIDCICYTKGPGMGAPLQVSAIVVRVLSQLWKKPIVAVNHCVAHIEMGRVVTGADDPVVLYVSGGNTQVIAYSEGRYRIFGETIDIAVGNCLDRFARVLKLSNDPSPGYNIEQLAKKGENFIDLPYAVKGMDVSFSGILSYIETTAEEKLKNNECTPADLCYSLQETVFAMLVEITERAMAHCDKKDVLIVGGVGCNERLQEMMRTMCSERDGKLFATDDRYCIDNGAMIAYTGLLAFVNGIETPIEDSTFTQRFRTDEVHAVWREKEAVLLGDKKVAAN chain 2: MDCEENVRDESLVLIKQGAEARVFESTFAGRRSIVKERFSKKYRHPILDAKLTLKRLNAEARCMTKARKLGVCTPVLYAVDTLLHSLTLEYIEGVSVKDIFLEFGTNGVVEERLDDVAAQIGAAIAKLHDGGLAHGDLTTSNMLVRSGTNQLVLIDFGLSVTSTLPEDKAVDLYVLERALLSMHSSCGNVMDRILTAYRKSSKQWSATFNKLAQVRQRGRKRTMIG chain 3: MKVFNLDRGNTLSVSLFSGVTNSKELLNSMLDGSLKLEVSFLNASLIPDIFPLLAAAQKALISKSRDSLSTRTLHSELVYNYSGSKHITESLKRCGISENTTYILAARFNASPVEMEEVAKLINGKEIDLEELKTHANQANILKHYKITSQELGISSLGDAIVCRIAARDAL chain 4: MAATVPATTRSDQTWDFSCNLDVSFESEEHALIAYTSLAVDKELQPDKVRRVMSVSNNKLSVHFEAIEARLLRASFSAFVDVLTLATRTIQEFGQK | 2 | – |
| Arabidopsis thaliana PCC1 (natural protein, AtPCC1, A. thaliana, from chemically synthesized DNA; Forms a homodimer in the cryo-EM structure; also called AtPCC1; AT5G53045; source: E. coli (Rosetta DE3 pLysS or BL21), co-expressed with KAE1, purified (Ni-NTA, SEC)) MAATVPATTRSDQTWDFSCNLDVSFESEEHALIAYTSLAVDKELQPDKVRRVMSVSNNKLSVHFEAIEARLLRASFSAFVDVLTLATRTIQEFGQK | – | binding result [3]: binds |

Source: publication PMC11077089, “Molecular basis of A. thaliana KEOPS complex in biosynthesizing tRNA t^6A” (Nucleic Acids Research, 2024)
